The term EC50 (read off the curve) denotes the concentration needed to bring the measured effect to its halfway point.

The labels stand for the following.
B1: Molecule A: Her2 (pertuzumab CLC_WT)-CD28 (SA_Variant 8) 1+1 format (bispecific antibody, human IgG1, kappa, L234A L235A)
heavy 1: not shown
light 1: QVQLVQSGAEVKKPGASVKVSCKASGYTFTSYYIHWVRQAPGQGLEWIGSIYPGNVQTNYNEKFKDRATLTVDTSISTAYMELSRLRSDDTAVYFCTRSHYGLDFNFDVWGQGTTVTVSSASVAAPSVFIFPPSDEQLKSGTASVVCLLNNFYPREAKVQWKVDNALQSGNSQESVTEQDSKDSTYSLSSTLTLSKADYEKHKVYACEVTHQGLSSPVTKSFNRGEC
heavy 2: not shown
light 2: DIQMTQSPSSLSASVGDRVTITCKASQDVSTAVAWYQQKPGKAPKLLIYSASFRYTGVPSRFSGSRSGTDFTLTISSLQPEDFATYYCQQHYTTPPTFGQGTKVEIKRTVAAPSVFIFPPSDRKLKSGTASVVCLLNNFYPREAKVQWKVDNALQSGNSQESVTEQDSKDSTYSLSSTLTLSKADYEKHKVYACEVTHQGLSSPVTKSFNRGEC
notes: only the Fc knob chain carries PG-LALA; also called P1AF6741; Her2-CD28 (P1AF6741)
B2: Molecule D: Her2 (trastuzumab CLC)-CD28 (SA_variant 8) 1+1 (bispecific antibody, human IgG1, kappa, L234A L235A)
heavy 1: not shown
light 1: B1 light 1
heavy 2: not shown
light 2: B1 light 2
notes: huIgG1 PG-LALA CrossFab: VH/VL exchange in the CD28 Fab (knob), charged modifications in the Her2 Fab (hole); also called P1AF8338
B3: Molecule B: Her2 (pertuzumab CLC)-CD28 (SA_Variant 8) 1+1 format (bispecific antibody, human IgG1, kappa, L234A L235A)
heavy 1: not shown
light 1: B1 light 1
heavy 2: EVQLVESGGGLVQPGGSLRLSCAASGFTFNDYTMDWVRQAPGKGLEWVADVNPNSGGSIVNRRFKGRFTLSVDRSKNTLYLQMNSLRAEDTAVYYCARNLGPFFYFDYWGQGTLVTVSSASTKGPSVFPLAPSSKSTSGGTAALGCLVEDYFPEPVTVSWNSGALTSGVHTFPAVLQSSGLYSLSSVVTVPSSSLGTQTYICNVNHKPSNTKVDEKVEPKSCDKTHTCPPCPAPEAAGGPSVFLFPPKPKDTLMISRTPEVTCVVVDVSHEDPEVKFNWYVDGVEVHNAKTKPREEQYNSTYRVVSVLTVLHQDWLNGKEYKCKVSNKALGAPIEKTISKAKGQPREPQVCTLPPSRDELTKNQVSLSCAVKGFYPSDIAVEWESNGQPENNYKTTPPVLDSDGSFFLVSKLTVDKSRWQQGNVFSCSVMHEALHNHYTQKSLSLSP
light 2: B1 light 2
notes: huIgG1 PG-LALA CrossFab: VH/VL exchange in the CD28 Fab (knob), charged modifications in the Her2 Fab (hole); also called P1AF8305
B4: CD28(SA)_variant_15 (antibody, human IgG1, kappa, L234A L235A)
heavy: not shown
light: not shown
chain: DKTHTCPPCPAPEAAGGPSVFLFPPKPKDTLMISRTPEVTCVVVDVSHEDPEVKFNWYVDGVEVHNAKTKPREEQYNSTYRVVSVLTVLHQDWLNGKEYKCKVSNKALGAPIEKTISKAKGQPREPQVCTLPPSRDELTKNQVSLSCAVKGFYPSDIAVEWESNGQPENNYKTTPPVLDSDGSFFLVSKLTVDKSRWQQGNVFSCSVMHEALHNRFTQKSLSLSP
notes: tested from HEK supernatant, unpurified; also called P1AE3071
B5: CD28(SA)_variant_12 (antibody, human IgG1, kappa, L234A L235A)
heavy: not shown
light: DIQMTQSPSSLSASVGDRVTITCRASQNIYVWLNWYQQKPGKAPKLLIYKASNLYSGVPSRFSGSRSGTDFTLTISSLQPEDFATYYCQQGQTYPYTFGQGTKLEIKRTVAAPSVFIFPPSDRKLKSGTASVVCLLNNFYPREAKVQWKVDNALQSGNSQESVTEQDSKDSTYSLSSTLTLSKADYEKHKVYACEVTHQGLSSPVTKSFNRGEC
chain: B4 chain
notes: tested from HEK supernatant, unpurified; also called P1AE3068
B6: CD28(SA)_variant_16 (antibody, human IgG1, kappa, L234A L235A)
heavy: not shown
light: not shown
chain: B4 chain
notes: tested from HEK supernatant, unpurified; also called P1AE3072
B7: CD28(SA)_variant_13 (antibody, human IgG1, kappa, L234A L235A)
heavy: not shown
light: not shown
chain: B4 chain
notes: tested from HEK supernatant, unpurified; also called P1AE3069
B8: CD28(SA)_variant_17 (antibody, human IgG1, kappa, L234A L235A)
heavy: not shown
light: not shown
chain: B4 chain
notes: tested from HEK supernatant, unpurified; also called P1AE3073
B9: CD28(SA)_variant_30 (antibody, human IgG1, kappa, L234A L235A)
heavy: not shown
light: B5 light
chain: B4 chain
notes: tested from HEK supernatant, unpurified; also called P1AE3086
B10: CD28(SA)_variant_29 (antibody, human IgG1, kappa, L234A L235A)
heavy: not shown
light: not shown
chain: B4 chain
notes: tested from HEK supernatant, unpurified; also called P1AE3085
B11: CD28(SA)_variant_31 (antibody, human IgG1, kappa, L234A L235A)
heavy: not shown
light: not shown
chain: B4 chain
notes: tested from HEK supernatant, unpurified; also called P1AE3087
B12: CD28(SA)_variant_25 (antibody, human IgG1, kappa, L234A L235A)
heavy: not shown
light: not shown
chain: B4 chain
notes: tested from HEK supernatant, unpurified; also called P1AE3081
B13: CD28(SA)_variant_27 (antibody, human IgG1, kappa, L234A L235A)
heavy: not shown
light: not shown
chain: B4 chain
notes: tested from HEK supernatant, unpurified; also called P1AE3083
B14: CD28(SA)_variant_26 (antibody, human IgG1, kappa, L234A L235A)
heavy: not shown
light: not shown
chain: B4 chain
notes: tested from HEK supernatant, unpurified; also called P1AE3082

One test concerns the target T1, Her2 expressed on the cell surface of the human breast cancer cell line KPL-4 (human, UniProt P04626 23-1255).
T1 construct: endogenous Her2 of KPL-4 cells stood in the assay; also called ErbB2; human epidermal growth factor receptor-2
Description: flow cytometry (MFI PE) on KPL-4 cells; R-PE F(ab')2 goat anti-human IgG Fcgamma secondary. On the technique in general: Flow cytometry measures light scatter and fluorescence of single cells or particles in a stream.
For B1, the “EC50 (read off the curve)” value lay within 6 to 7 nM.

A further test concerns the target T2, human CD28 on CHO cells (parental cell line CHO-k1 ATCC #CCL-61, modified to stably overexpress human CD28) (human, UniProt P10747 19-220).
T2 construct: The whole entry (with signal peptide) is named; also called CHOk1-huCD28; CHOk1 huCD28
Description: flow cytometry (MFI PE) on CHOk1-huCD28 cells; R-PE F(ab')2 goat anti-human IgG Fcgamma secondary.
As for B1, the binding result is recorded as “binds”.

The target in another test is T1, Her2 expressed on the cell surface of …. Description: flow cytometry (MFI PE); panel title on the sheet: Binding to human Her2, KPL4; R-PE F(ab')2 goat anti-human IgG Fcgamma secondary.
In the case of B1, the “EC50 (read off the curve)” value was roughly 3 nM.
On the same count and under the same terms, the result for B2 reads roughly 3 nM; that for B3, roughly 3 nM.

The target of a further test is T2, human CD28 on CHO cells (parental cell …). In words: flow cytometry (MFI PE); panel title on the sheet: Binding to human CD28, CHO-k1-huCD28; R-PE F(ab')2 goat anti-human IgG Fcgamma secondary.
As for B2, the binding result was “binds”.
Same read-out and setting: for B3 the value was “binds”.

The next test shares this target. In words: flow cytometry (MFI PE), one-armed IgG from supernatant on CHO-k1 cells stably overexpressing human CD28; PE-conjugated goat anti-human secondary.
As for B4, the binding result is recorded as “binds”.
Still for that read-out and setting: the result for B5 reads “binds”.
On the same count and under the same terms, for B6 the value was “binds”; for B7, “binds”.
Take B8: the binding result is recorded as “binds”.

The next test has the same target. The test is described as above. This is another data set of the same source.
As to B9, the binding result was “binds”.
For B10, the binding result is “binds”.
Take B11: the binding result is reported as “binds”.
Same read-out and setting: for B12 the value was “binds”; for B13, “binds”; for B14, “binds”.

For the origin of these results see patent US20220017637A1 (Hoffmann-La Roche, published 2022).
